# Reference: publication PMC7327620
# “And” between values parts separate entries of the source, which are not always exact repeats. Identical values can stand only once.
# Target: Tailless ΔHoc T4 phage capsids (bacteriophage T4) (UniProt P19896)
# Experiment: native gel or EMSA; Mal–Hoc mixed with ΔHoc T4 capsids at a series of molar ratios; 22°C for 2 h or overnight (16 h) in PBS with 10 mM MgCl2; 1% agarose, 100 V for 2 h, 1x Tris–Acetate–EDTA; GelCode blue protein stain
substance,measurement,value
Maltase–SC–St–Hoc fusion (complex),stoichiometry N (Mal–Hoc per capsid),60 to 120 (2×) and 90
